The numbers were not newly measured in PMC6155412, which cites them from elsewhere.

The data set has as its target FPR2 (Homo sapiens) (UniProt P25090).
UniProt P25090, sequence (P25090 whole entry): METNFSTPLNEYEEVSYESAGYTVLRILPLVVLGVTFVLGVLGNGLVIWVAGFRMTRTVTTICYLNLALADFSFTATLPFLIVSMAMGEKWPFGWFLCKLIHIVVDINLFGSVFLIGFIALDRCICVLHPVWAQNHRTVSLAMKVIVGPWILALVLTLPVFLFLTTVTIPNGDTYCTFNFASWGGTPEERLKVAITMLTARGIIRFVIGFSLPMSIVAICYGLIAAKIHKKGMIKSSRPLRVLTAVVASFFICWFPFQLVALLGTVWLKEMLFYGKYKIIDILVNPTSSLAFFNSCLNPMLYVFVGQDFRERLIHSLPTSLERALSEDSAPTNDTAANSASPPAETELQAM

By Kd is commonly meant the constant that tells how readily two partners part at equilibrium. As for uteroglobin (UG) (from UniProt P11684), the Kd is 33 nM.
